Experimental data reported in the nanobody polyreactivity screen of Harvey et al. (2022).

Assay: yeast display, Sf9 membrane polyspecificity reagent, FACS + sequencing; frameworks hold sequencing errors
Method in brief: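 Nanobodies came from a synthetic yeast display library in Saccharomyces cerevisiae BJ5465, induced with galactose for 36–48 hours and stained for 1 hour at 4 °C with 10% biotinylated, detergent-solubilized Sf9 membrane reagent. Cells were enriched on streptavidin microbeads and then FACS-sorted, with low and high (top ~1%) gates set on anti-HA fluorescence for expression and streptavidin fluorescence for reagent binding. Each polyreactivity label reflects the gate a clone came from. Genes were amplified by colony PCR, sequenced by MiSeq 2 × 250 and filtered by CDR length.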

Sequence	polyreactivity (PSR sort gate)
QVHLVDSGGGLVQARGSLRLSCAASGLTFRYYTMAWYRQAPGKERELVAAISSSGGSTYYADSVKGRFTISRDNAKNTVYLQMNSLKPEDTAVYYCADSASLRHVYWGQGTQVTVSS	high polyreactivity
QVQLVESGGGLVQAGGSLRLTCAASGSIFFPNTMGWSRQAPGKERELVASISYSGGSTYYADSVKGRFTISRDIAKNSVYLQMNSLKPEDTAVYYCARTYWGDRYQFSSNGYEYWGQGTQVTVSS	high polyreactivity
QVQLVESGGGLVQAGGSLRLSCAASGRTYNTNAMGWYRQAPGKERELVAAISGGGSTYADSVKGRFTISRDNAKNTVYLQMNSLKPEDTAVYYCAAQNVWFYGFWRDYWGQGTQVTVSS	low polyreactivity
QVQLVESGGGLVQAGGSLRLSCAASGSIFPYNAMGWYRQAPGKEMELVATISSGGSTNYADSVKGRFTISRDNAKNTVYLQMNSLKPEDTAVYYCAADVIVFYYAPNYWGDIEYGYWGQGTQVTVSS	low polyreactivity
QVQLVESGGGLVQAGGSLRLSCAASGSTFEFYAMGWYRQAPGKERELVASITSSSGPTYYADSVKGRFTISRDNAKNTVYLQMNSLKPEDTAVYYCAKRPIRYYHLLRGNYWGQGTQVTVSS	low polyreactivity
QVQLVESGGGLVQAGGSLRLSCAASGRIFRSNGMGWCRQAPGKERELVAVITPRSGTTSYADSVKGRFTISRDNAKNTVYLQRNSLKPEDTAVYYCAADSDWYPSPYDYWGQGTQVTVSS	high polyreactivity
QVQLVESGGGLVQAGGSLRLSCAASGPTFAKNTMGWYRQAPGKERELVAAISWRGGRTYYADSVKGRFTISRDNAKNTVYLQMNSLKPEDTAVYYCAAASTIHRHGMDYWGQGTQVTVSS	high polyreactivity
QVQLVESGGGLVQAGGSLRLSCAASGGIAGNTMGWYRQAPGKERELVAAITRSGGRTYYADSVKGRFTISRDNAKNTVYLQMNSLKPEDTAVYYCAVTGLVRRRYGYWGQGTQVTVSS	high polyreactivity
QVQLVESGGGLVQAGGSLRLSCAASGRIFTHNAMGWYRQAPGKERELVAAITSGGRTTYADSVKGRFTISRDNAKNTVYLQRNSLKPEDTAVYYCNADTGLGSLDFDKRDYWGQGTQVTVSS	low polyreactivity
QVQLVESCGGLVQAGGSLRLSCAASGRIFKYNPMGWYRQAPGQERELVASITASGGRTYYADSVKGRFTISRDIAKNTVYLQMNSLKTEDTAVYYCAAGRPFSKYGYWRQGTQVTVSS	high polyreactivity
QVQLVESGGGLVQAGGSLRLSCAASGRTFGRNALGWYRQAPGKEREFVAAISRRGDTTYYADSVKGRFTISRDNAKNTVYLQMNSLKPEDTAVYYCNADVIKDRFYWYYYWGQGTQVTVSS	low polyreactivity
QVQLVESGGRLVQAGGSLRLSCAASGLTFPVYAMGWYRQAPGKEREFVASISGRGASTYYADSVKGRFTISRDNAKNTVYLQMNSLKPEDTAVYYCNADVWLLSYFPEYDYWGQGTQVTVSS	low polyreactivity
QVHLVESGGGLVQAGGSLRLSCAASGRTFRVNAMGWNRKAPGKERELLAAISSRGGTTYYADSVKGRCTISSDYAKNTLYLQMYSLKAEDTAVYYCAAASDRDFPFDYWGQGTQVSVSS	high polyreactivity
QVQLVESGGGLVQAGGSLRLSWAASGSIFRYNAMGWYRQAPGKERELVAAISSGGGTTYYADSVKGRFTISRDNAKNSVYLQMNSLKPEVTAVYYCNARSYYQRTTYPFRVDYWGQGTQVTVSS	high polyreactivity
QVQLVESGGGLVQAGGSLRLSCAASGFIFYFNAMGWYRQAPGKERELVAAISASGGRTYYADSVKGRFTISRDNAKNTVYLQMNSLIPEDTAVYYCAADIRGYDYWGQGTQVTVSS	high polyreactivity
QVQLVESGVGLVQAGGSLRLSCAASGRIFTPYAMGWYRQAPGKERELVAAITGSGGITYYADSVKGRFTISRDNSKNTVYLQMNSLKPEDTAVYYCNADTPVWDGHAYPGDYWGQGTQVTVSS	low polyreactivity
QVQLVDSGGGLVQAAGSLRLSCAASGRIFYYNAKGCYRQAPVKERELVAAITRSGGSTYYADSVKGRFTSSRDNAKHTVYLQMNSLKPEDTAVYYCAKPDRTGWLDGDYWGQGTQVTVSS	low polyreactivity
QVQLVESGGGLVQAGGSLRLSCAASGSTFPYYAMGRYRPAPGKEMELVAAISQNGGSSYYADSVKGRFTISRDNAKNTVYLQINSLKPEDTAVYYCNADGVGGEYRLSGYDYWGQGTQVTVSS	low polyreactivity
QVQLVESGGGLVQAGGSLRLSCAASGRTIWRYAMGWYRKAPGKERELVAAISWSGTSTYYADSVKGRFTISRDNAKNTVYLQMNSLKPEDTAVYYCAVAYPFYGKTLFSPQADYNYWGQGTQVTVSS	high polyreactivity
QVQLVESGGGLDQAGRSLRLSCAASGLIFTDYTMGWYRQAPGKERELVATISTGGRTFYADSVKGRFTISRDNAKNTVYLQMNSLKPEDTAVYYCAKDQPGRAGFLFTPGLVDYDYWGQGTQVTVSS	low polyreactivity
QVQLVESGGGLVQAGGSLLLSCAASGLIFDPYAMGWYRQAPGKERELVADISSGGSTNYADSVKGRFTISRDNAKNTVYLQMNSLKPEDTAVYYCNKTIILDGYYFSLTLYDSWGQGTQVTVSS	low polyreactivity
QVKLVESGGGLVQAGGSLRLSCAASGSIFRRYGMGWYRQAPGKERELVAVITRGGSTYYADSVKGRFTISRDNAKNTVYLQMNSLKPEDTAVYYCNRSAGKDGQVGGQYDYWGQGTQVTVSS	high polyreactivity

Sequence	polyreactivity (PSR sort gate)
QVQLVESGGGLVQAGGSLRLSCAASGFIFNHNAMGWYRQAPGKERELVAAISSGGRTYYADSVKGRFTISRDNAKNTVYLQMNSLKPEDTAVYYCAKDTKYSSQYGKYGYWGQGTQVTVSS	low polyreactivity
QVQLVESGGGLVQAGGSLRLSCAASGFIFDYYAMGWYRQAPGKERELVAAIDDSGGSTYYADSVKGRFTISRDNAKNTVYLQMNSLKPEDTAVYYCNAGVGWHSYYSNYDYWGQGTQVTVSS	low polyreactivity
QVQLVESGGGLVQAGGSLRLSCAASGSTFGLNAMGWYRQAPGKERELVAAITWSGASTYYADSVKGRFTISRDNAKNTVYLQMNSLKPEDTAVYYCAKDIPTDYKDVNYWGQGTQVTVSS	low polyreactivity
QVQLVESGGGLVQAGGSLRLSCAASGNIFSDNAMGWYRQAPGKERELVAAITSGGSTIYADSVKGRFTISRDNAKNTVYLQMNSLKPEDTAVYYCAADISYRHFLFDFWGQGTQVTVSS	low polyreactivity
QFQLVESGGGLVQAGGSLRLSCAASGRIFDFYAMGWYREAPGKERELVAAISWRGGSTYYAHSVKGRFTISRDNAKNTVYLQMNSLKPEDTAVYYCATRFGPRYYWGQGTQVTVSS	low polyreactivity
QVQLVQSGGGLVQAGGSLRLSCAASGSTFSTYAMGWYRQAPGKERELVAAISRYGGLTNYADSVKGRFTISRDNAKNTVYLQMNSLKPEDTAVYYCAARRYDTGNGYDYWGQGTQVTVSS	high polyreactivity
QVQLVESGGGLVQAGGSLRLSCAASGSTFPPNAMGWYRQAPGKERELVAGINGSGGRTYYADSVKGRFTISRDNAKNTVYLQMNSMKPEDTAVYYCATRLRSEYYYNKWYYHWGQGTQVTVSS	high polyreactivity
QVQLVESGGGLVQAGGSLRLSCAASGSIFPLYVMGWYRQAPGKERELVAAISSAADTYYADSVKGRFTISRDNAKNTVYLQMNSLKPEDTAVYYCAAAVLYWVGYGYWGQGTQVTVSS	low polyreactivity
QVQLQESGGGLVQAGGSLRQSYAASGYIFPSLAMGWYRQAPGKEREFVAAIGRGSTNNYADSLKGRFTISRDNEKNTAYQQMNSLKPEVTAVYYCAADASPLTRHLYWGQGTQVTVSS	low polyreactivity
QVQLVESGGGLVQAGGSLRLSCAASGFIIGSNGMGWYRQAPGKERELVAAISKNGGTTYYADSVKGRVTISRDNANNTVYLLMNSLKPADTAVYYCAAYKAVPNYYYWGQGTQVTVSS	high polyreactivity
QVQLVESGGGLVQAGGSLRLSCAASGRIFYSNAMGWYRQAPGKERELVAAISGSTDSTYYADSVKGRFTISRDNAKNTDYLQMNSVKPEDTAVYYCAAADYWFYYGYYLTMDFWGQGTQVTVSS	low polyreactivity
QVQLVESGGGLVQAGGSLRLSCSASGSIFYYKAMGWYRQAPGKERELVAAISYRGTSTYYADSVKGRFTISRDNAKNTVSLQMNSLKPEDTAVYYCAAPALYTSRRYYYWGQGNQVTVSS	high polyreactivity
QVQLVESVGGLVQAGGSLRLSCAAYGRTFAPNAMLWYRQAPGKESELVAAISWSGTSTYYADSVKGRFTISRDNSKNTVYLQMYSLKPEDTAFYDCAADMEGRVGSPWTYDYWGQGTQVTVSS	low polyreactivity
QVQLVESGGGLVQAGGSLRLSCAASGSIFVRNGMGWYRQAPGKERELVASFTSGTITYYADSVKGRFTISRDNARNTVYLQMNRLKPDDTAVYYCAARRDRGRVKFYYWGQGTQVTVSS	high polyreactivity
QVQLVESGGGLVQAGGSLRLSCAASGRTFDDYAKGWYRQAPGKETEFVAAITRSGGGTHYADSVKGRFTISRDNAKNTVYLQMNSLKPEDTAVYYCAARAHGTYVRRRYDYWGQGTQVTVSS	high polyreactivity
QVHLVESGGGLVQAGGSLRLSCAASGSTFYVYAMGWYRQAPGKERELVAAISTSTGNTYYADSVKGRFTISRDNAKNTVYLQMNSLKPEDSAVYDCANSGSSSHYYSWGQGTQVTVSS	low polyreactivity
QVQLVESGGGLVQAGGSLRLSCAASGRTFFPNAMGWYRPAPAKERELVAAITNGDSTHYADSVKGRFTISRDNAKNTVYLQMNSLKPEDTAVYYCAAEDHYEGYGGYYWGQGTQVTVSS	low polyreactivity
QVQLVESGGGLVQAGGSLRLSCAASGRTFYSNAMGWYRQAPGKERELVAAITSGGSTNYADSVKGRFTISRDNAKNTVYLQMNSLKPEDSAVYYCAVRGYWTIRSRRYYYWGQGTQVTVSS	high polyreactivity
QVQLVESGGGVVQAGGSHRLSCAASGSIFSSDAMGWYRQAPGKEREFVAAISSSGDSTYADSVKGRFTISRDNAKNTVYLQINSLKPEDTAVYYCAVGGAGSDDYWGPGTQVTVSS	low polyreactivity
QVQLVESGGGLVQAGGSLLLSCAASGGTFYYYAMGWYRQAPGKERELVASISSRGGSTYYADSVKGRFTISRDNAKNTVYLQMNSLKPEDTAVYYCAARSLYSGFGYWGQGTQVTVSS	high polyreactivity
QVQLVESGGGLVQAGGTLRLSCAASGMTFSRNGMGWYRQAPGKEREVVADISYRGGRTYYADSVKGRFTFSRDNAKNTVYLQMHSLKPEDTAVYYCNAVFLVGVGPTSDYWGQRTQVTVSS	high polyreactivity
